Experimental data from article doi:10.1101/2020.04.18.045682.

Legend:
[1] = biological target: Cas10d (Synechocystis sp. PCC 6803); test: affinity purification with mass spectrometry
[2] = biological target: type I-D Cascade lacking Cas11d (Synechocystis sp. PCC 6803); test: negative-stain electron microscopy, 3D reconstruction

| stoichiometry N [1] | stoichiometry N [2] | Substance |
| --- | --- | --- |
| 1 |  | Cas5d (natural protein) |
| 1 |  | Cas6d (natural protein) |
| 6 |  | Cas7d (natural protein) |
| 2 | 2 | Cas11d (natural protein) |
